Here are results for two molecules from article PMC3081289.

Assay [1] has as its target T1, Vascular Endothelial Growth Factor (VEGF), receptor binding domain, VEGF_(8–109).
T1 chain: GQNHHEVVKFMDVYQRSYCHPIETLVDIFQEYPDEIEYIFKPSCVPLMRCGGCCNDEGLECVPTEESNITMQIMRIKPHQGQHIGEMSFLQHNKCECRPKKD
Kind of assay: SPR. The conditions noted are these: chain shown with the change; for response (Response Units): 0.5 µM Fab, parent: est. 690, read off a plot.

Assay [2] addresses T1, Vascular Endothelial Growth Factor …. The experiment in a line: SPR (ΔG derived from KD). The conditions noted are these: chain shown with the change; 30°C, phosphate buffer (pH 7.4); parent: est. -12 kcal/mol; read off a plot.
Assay [3] shares this target. Kind of assay: calculated from ΔG (SPR) and ΔH (ITC). The following applies: chain shown with the change; 30°C, phosphate buffer (pH 7.4); parent: est. -4.4 kcal/mol; read off a plot.
[4] abbreviates: 30°C, Fab over immobilized antigen.

Positions count from the first letter of the chain named. In names and notes the source's numbering stands.

B1: bH1-44 Fab (affinity-improved variant of bH1) HC:R50A; HC:R58A (protein)
chain 1: EVQLVESGGGLVQPGGSLRLSCAASGFNISGTYIHWVRQAPGKGLEWVAAIYPSEGYTAYADSVKGRFTISADTSKNTAYLQMNSLRAEDTAVYYCSRWVGVGFYAMDYWGQGTLVTVSS
chain 2: DIQMTQSPSSLSASVGDRVTITCRASQNIAKTISGYVAWYQQKPGKAPKLLIYWGSFLYSGVPSRFSGSGSGTDFTLTISSLQPEDFATYYCQQHYSSPPTFGQGTKVEIK
Take B1: the response (Response Units) in assay [1] worked out at 600. Also, in assay [1] (setting [4]), the Kd is 3 nM and the koff was 10 10^-4 s-1. Moreover, the dG in assay [2] was -12 kcal/mol. Also, in assay [3], the other: -TΔS is -3.7 kcal/mol.

B2: bH1-44 Fab (affinity-improved variant of bH1) LC:Y32A (protein)
chain 1: B1 chain 1 with A50R, A59R
chain 2: B1 chain 2 with Y36A
As to B2, the response (Response Units) in assay [1] is 60.

As usually defined, the Kd is the concentration at which binding is half-saturated. Read a high Kd as weaker binding. One may read the koff as a measure of how fast the partners let go of each other. Read a high koff as a short-lived complex.
